Results: IntAct's records for PubMed 11801737

B1: Protein phosphatase 1 regulatory subunit SDS22 (Saccharomyces cerevisiae), P36047 (parent)
chain: MDKNSVNKDSEEKDERHKIEVVDDTNPDFITADSELTQDLPDDVEVIDLVHLKIKSLEDLNLYRFKNLKQLCLRQNLIESISEVEVLPHDKIVDLDFYDNKIKHISSNVNKLTKLTSLDLSFNKIKHIKNLENLTDLENLYFVQNSISKIENLSTLKSLKNLELGGNKVHSIEPDSFEGLSNLEEIWLGKNSIPRLINLHPLKNLKILSIQSNKLKKIENLEELTNLEELYLSHNFITKIEGLEKNLKLTTLDVTSNKITSLENLNHLSNLTDIWASFNKIDQSFESLGENLSALSRLETIYLEGNPIQLENKTSYRRKLTMNLPPSLQKIDATYIRG

Variants of: B1
Conditions: with pp12_yeast GLC7, P32598
Chain of pp12_yeast GLC7, P32598 (P32598 whole entry): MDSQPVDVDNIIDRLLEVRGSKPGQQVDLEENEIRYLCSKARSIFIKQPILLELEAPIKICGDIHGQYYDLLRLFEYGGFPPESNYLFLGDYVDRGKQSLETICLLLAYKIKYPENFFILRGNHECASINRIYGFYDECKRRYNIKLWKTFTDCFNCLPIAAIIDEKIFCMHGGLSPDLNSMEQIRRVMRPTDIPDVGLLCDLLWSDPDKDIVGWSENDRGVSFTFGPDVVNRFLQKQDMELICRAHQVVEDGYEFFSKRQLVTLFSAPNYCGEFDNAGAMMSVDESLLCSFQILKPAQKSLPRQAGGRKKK

| Variant | effect of a mutation on the interaction |
| --- | --- |
| I54T;I193T | decreasing interaction strength |
